Assay: yeast display, Sf9 membrane polyspecificity reagent, FACS + sequencing; frameworks hold sequencing errors
Outline: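 A nanobody's polyreactivity label depends on the gate it was sorted from. Yeast display cells were stained with 10% biotinylated, detergent-solubilized Sf9 membrane reagent for 1 hour at 4 °C, enriched on streptavidin microbeads and sorted by FACS. The low and high (top ~1%) gates were set on anti-HA fluorescence for expression and streptavidin fluorescence for reagent binding.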
In the case of “QVQLVESGGGLVQAGGSLRLSCAASGRTFVTNAMGWYRQAPGKERELVAAISSNGGSTYYADSVKGRFTISRDNAKNTVYLQMNSLKPEDTAVYYCNAEGQPLYVSWHDHRYIYGFDYWGQGTQVTVSS”, the “polyreactivity (PSR sort gate)” value is reported as “low polyreactivity”. With “QVQLVESGGGLDQAGGSLRLSCAASGGIFSVYAMGWYRQAPGKEREFVAAISKSGGRTYYADSVKGRFTISRDTAKKTVYLQMNCLKQVDTAVYYCNADVYPYYRKPWMDYWGQGSQVTVSS” the “polyreactivity (PSR sort gate)” value was “low polyreactivity”. With “QGQLVESGGGLVQAGGSLRLSCAASGSIFIGNAMGWYRQAPGKERELVAAITGRGGRTYYADSVKGRFSISRDNAKNTVYLQMNSLKPVDTAVYDCNARSGSSYSGYYYWGQGTQVTVSS” the “polyreactivity (PSR sort gate)” value was “high polyreactivity”. For “QVQLVESGGGLVQAGGSLRLSCAASGSTFTYYSMGWYRQAPGKERELVDAITGRGGRTYYADSVKGRFTISRDNAKNTVYLQMNSLKPEDTAVYYCARYQSSDTYWTKYDYWGQGTQVTVSS”, the “polyreactivity (PSR sort gate)” value was “high polyreactivity”. For “QVQLVESGGGLVQAGGSLRLSCAASGYTFYRYTMGWYRQAPGKERELVAAINSGGSTNYADSLKGRFTISRDNAKYTVYLQMNSLKPEDTAVYYCARRYQTWPRWYDYWGQGTQVTVSS”, the “polyreactivity (PSR sort gate)” value was “high polyreactivity”. In the case of “QVQLVESGGGLVQAGGSLRLSCAASGSTFSSYVMGWDRQAPGKERELVAAISSIGGSTYYADSVKGRFTISRDNAKNTVYLQMNSQKPEDTAVYYCPAEPPGSTYEGGYWGQGTQVTVSS”, the “polyreactivity (PSR sort gate)” value is reported as “low polyreactivity”. For “QDQLVDSGGGLVQAGGRLRLSCAASGSTYRTYAMVRYRQAPGKERELVAAINSGGSTYYADSVKGRFTISRDNAKNTVYLQMNSLKPEDTAVYSCAREDYVSYRLLYYLFDYWGQGTQVTVSS”, the “polyreactivity (PSR sort gate)” value was “low polyreactivity”. For “QVQLVESGGGLVQAGGSLRLSCAASGIIFFRYAMGWYRQAPGKEREWVAGISGSGGSTYYADSVKGRFTMSRDNAKNTVYLQMNSLKPEDTAVYYCAKRYYRPVPGGYYWGQGTQVTVSS”, the “polyreactivity (PSR sort gate)” value was “high polyreactivity”. For “QVQLVESGGGLVQAGGSLRLSCAASGFTFFVYAMGWYRQAPGKERELVAVITSGGTTNYADSVKGRFTISRDNAKNTVYLQMNSLKPEDTAVYYCATDNGGIPKYVPYDFWGQGTQVTVSS”, the “polyreactivity (PSR sort gate)” value was “high polyreactivity”. For “QVQLVESGGVLVQAGGSLRLSCAASGSIFYYNAMGWYRQAPGKERELVATITGGNGTYYADSVKGRFTISRDNAKNTVYLQMNSLKPEVTAVYYCARDTDPQSSRSSDYDYWGQGTQVTVSS”, the “polyreactivity (PSR sort gate)” value was “low polyreactivity”. With “QVQLVESGGGLVQAGGSLRLSCAASRFTFLTNAMGWYRKAPGTERELVAAISSGGNTNYADSVKGRFTISRDNAKNTVYLQMNSLKPEDTAVYYCAADNDYLSSQVSYDYWGQGTQVTVSS” the “polyreactivity (PSR sort gate)” value was “low polyreactivity”. With “QVQLVESGGCLVQAGGSLRLSCAASGRTFYGYAMGWYRQAPGKERELVATITSGGSTNYADSVKGRFTISRDNAKNTVYLQMNSLKPEDTAVYYCAATTRLYGRHRRYNYWGQGTQVTVSS” the “polyreactivity (PSR sort gate)” value was “high polyreactivity”. In the case of “QVQLVESGGGLVHAGGSLRLSCAASGNTFIRYAIGWYRQARGTQRELVASITKRCGSTYYADSVKGRFTISRDNAKNTVYLQMNCLKPEDTAVYYCDRGPSGTPIGNTPYGDNRYNSWGEGTQVTVSS”, the “polyreactivity (PSR sort gate)” value is reported as “low polyreactivity”. With “QVQLVESGGGLVQAGGSLRLSCAASGYTFGAYAMGWNRQAPGKERELVAAITVRAGRTYYADSVKGRFTISRDNAKNSVYLQMNSLKPEDTSVYYCARRNPLGGNEHDYWGHGTQVTVSS” the “polyreactivity (PSR sort gate)” value was “low polyreactivity”. With “QVQLVESGGGLVQAGGSLRLSCAASGFTFGSYAMGWYRQAPGKERELVAASTRRGDNTYYADSVKGRFTISRDNAKNTVYLQMNSLKPEDTAVYYCNVGLRSVVSGEYWGHGTQVTVSS” the “polyreactivity (PSR sort gate)” value was “high polyreactivity”. With “QVQLVESGGGLVQAGGSLRLSCAASGRIFGFNAMGWYRQAPGKERELVAGITDSSGRTNYADSVKGRFTISRDNAKNTVYLQMNSLKPEDTAVYYCAKASAYGLANDYDYWGQGTQVTVSS” the “polyreactivity (PSR sort gate)” value was “low polyreactivity”. With “QVQLVESGGGLVQAGGSLRLSCAASGSTFFPNGMGWYRQAPGKERELVAAITQDGGSTYYADSVKGRFTISRDKAKNTVYLQMNSLKPEDTAVYYCAASAGPYYEYGYWGQGTQVTVSS” the “polyreactivity (PSR sort gate)” value was “low polyreactivity”. With “QVQLQESGGGLVQAGGSLLICAASGTISWVDEMGWYRQAPGNERELVAGIAGGGNTNYADSVKGRYTISRDNAKNTVYLEMNSLDTAVYYCAVVGFGRGTHIYWGQGTQVTVSS” the “polyreactivity (PSR sort gate)” value was “high polyreactivity”. In the case of “QVQLVESGGGLVQAGGSLSLSCAASGRTMYTNAMGWYIQAPGKERELVAVITLSTDGTYYADSVKGRFTISRDNAKNTVYLQMNSLKPEDTAVYYCAIGDPDGDREIWRLYYWGQGTKVTVSS”, the “polyreactivity (PSR sort gate)” value is reported as “low polyreactivity”. In the case of “QVQLVESGGGLDQAGGSLRLSCAASGSIFYVNAMGWYRQAPGKERELVAAITSGGSTSYADSVKGRFTISRDNAKNTVYLQMNSLKPEDTAVYYCAADWDYPEQYRVNYEYGYWGLGTQVTVSS”, the “polyreactivity (PSR sort gate)” value is reported as “low polyreactivity”. With “QVQLVESGGGLVQAGGSLRLSCAASGSTFSSNAMGWYRQAPGKERELVAAITTSGGSTYYADSVKGRFTISRDNAKNTVYLEMNSLKPEDTAVYYCAADLVHASQWSIFLYGYWGQGTQVTVSS” the “polyreactivity (PSR sort gate)” value was “low polyreactivity”. For “QVQLVESGGGLVQAGGSLRLICAASGSTFRYYAMGWYRQAPGKEREFVAAISLRAGSTYYADSVKGRFTISRDNAKNTVYLQMNSLKPEDTAVYYCAARRASYGTRRYDYWGQGTQVTVSS”, the “polyreactivity (PSR sort gate)” value was “high polyreactivity”. In the case of “QVQLVESGGGLVQAGGSLRLSCDASGRIFRKYAMGWYRQAPGKERELVAGITWRGTSTYYADSVKGRFTISRDNAKNTVYLPMNSLKPEDTAVYYCAAEWKGYYVHDYWGQGTQVTVSS”, the “polyreactivity (PSR sort gate)” value is reported as “high polyreactivity”. For “QVQLVESGGGLVQAGGSLRLSCAASGITFYYYAMGWYRQAPGKERELVAAIDTDGSTYYADSVKGRFTISRDNAKNTVYLQMNSLKPEDTAVYYCAAEIEYYPYSGYIYDYWGQGTQVTVSS”, the “polyreactivity (PSR sort gate)” value was “high polyreactivity”. In the case of “QVQLVESGGGLVQAGGSLRLSCAASGSTFQYNAMGWYRQAPGKEREFVAAISRTGTSTYYADSVKGRFTISRDNAKNTVYLLMNSLKPEDTAVYYCAAKSLRSGMGYWGQGTQVTVTS”, the “polyreactivity (PSR sort gate)” value is reported as “high polyreactivity”. For “QVQLVESGGGLVQAGGSLRLSCAASGFIFDYYAMGWYRQAPGKERELVAAITSRSGSTYYADSVKGRFTISRDNAKNTVYLQMNSLKPEDTAVYYCAARRARRDPVGYVYAKYGYWGQGTQVTVSS”, the “polyreactivity (PSR sort gate)” value was “high polyreactivity”. In the case of “QVQLVESGGGLVQAGGSLRLICAASGRTFRHNAMGWYRQAPGKERELVAAISSSGTNTHYADSVKGRFTISRDNAQNTVYLQMNSLKPEDTAVYYCAADRWGARRKQYHENGYWGQGTQVTVSS”, the “polyreactivity (PSR sort gate)” value is reported as “high polyreactivity”. In the case of “QVQLVESGGGLVQAGGSLRISCAASGFIISFYAMGWYRQAPRKERELVAAIKLSGGSTYYADSVKGRFTISRDNAKNTVYLQMNSLKPEETAVYYCNDVQYFSIPKPVWLFVLRYYYWGHGTQVTVSS”, the “polyreactivity (PSR sort gate)” value is reported as “low polyreactivity”. In the case of “QVQLVESGGGLVQAGGSLRLSCAASGRTFGVNAMGWYRQAPRKERELVARIRVSGGRTYYADSVKGRFTISRDNAKNSVYLLMNSLKPEDTAVYYCNAGDTYNRVIWPYYYCGQGTQVTVSS”, the “polyreactivity (PSR sort gate)” value is reported as “high polyreactivity”. In the case of “QVQLVESGGCSVQAGGSLRLICAASGYTFYINAMGWYRPAPGKERELVAVITWSSGSTYYADSVKGRFTISRDNAKNTVYLQMYSLKAEDTAVYYCAADVTYEDGAWTIQYDYWGQGTQVTVSS”, the “polyreactivity (PSR sort gate)” value is reported as “high polyreactivity”. In the case of “QVQLVESGGGLVQAGGSLRLSCAASGSIFYLNAMGWYRQAPGKERELVAAITNGGSTYADSVKGRFTISRDNAKNTVYLQMNSLKPEDTAGYYCATRSWELGDYWGQGTQVTVSS”, the “polyreactivity (PSR sort gate)” value is reported as “low polyreactivity”. For “QVQLVESCGGLVQAGGSLRLSCAASGFIFRIYAMGWYRQAPGKERELVAAITWSGGRTFYADSVKGRFTISRDNAKNTVYLQMNSLKPEDTAVFYCAARGRSSGFGYWGQGTQVTVSS”, the “polyreactivity (PSR sort gate)” value was “high polyreactivity”. With “QVQLVESGGGLVQAGGSLRLSCAASGRIFYYYTMGWYRQAPGKEREVVAAITKGDDDTSYADSVKGRFTISRDNAKNTVYVQMNSLKPEDTAVYYCAVEIVLVPFVVGYDYWGQGTQVTVSS” the “polyreactivity (PSR sort gate)” value was “low polyreactivity”. In the case of “QVQLVESGGGLVQAGGSLRLSCAASGRIIRWYAMAWYRQAPGKERELVAAITWRGGSTDYADSVKGRFTISRDNAKNTVYLQMNSLKPEDTAVYYCNAAGFKTSWYYYGDWYDYWGQGTQVTVSS”, the “polyreactivity (PSR sort gate)” value is reported as “high polyreactivity”. For “QVQLVESGGGLVQAGGSLRLSCAASGSTFIFNTMGWYRQAPGKERELVASITGDGRTNYADSVKGRFTISRDNAKNTVYLQMNSLKPEDTAVYYCAADGYDQYPLWAPPGDYWGQGTQVTVSS”, the “polyreactivity (PSR sort gate)” value was “low polyreactivity”. For “QVQLVESGGGLVHAGGSLRLSCAAPGRTSRYYVMGWYRQAPGKERELVAAISKNGGSTYYADSVKGRFTISRDNAKNTVYLQMNSLKPEDTAVYFCAASYYPFSYGHGYDYWGQGTQVTVSS”, the “polyreactivity (PSR sort gate)” value was “high polyreactivity”. In the case of “QVQLVESGGGLVQAGGSLRLSCAAAGSIVWFYAMGWYRQAPGKERELFASISSSGGSTYYADSVKGRFTISRDKAKNPGNIQMNTLKPEYTAVYYCAKRTNWGYWYNSWGQGTQVTVSS”, the “polyreactivity (PSR sort gate)” value is reported as “high polyreactivity”. In the case of “QVQLVESGGGLVQAGGSLRLSCAASGRTFWKYARGWYRQAPGKERELVAAISSSGGNTYYADSVKGRFTISRDNAKNTVYLQMNSLKPEDTAVYYCAARLPRGAYYYWGQGTQVTVSS”, the “polyreactivity (PSR sort gate)” value is reported as “high polyreactivity”. For “QVQLVESGGGLVQAGGSLRLSCAASGSIFRPYAMGWYRQAPGKERELVAGITWGGSRTYYADSVKGRFTISRDNAKNTVYLQMNSLKPEDTAVYYCAAYPSTNGYIYYYWGQGSQVTVSS”, the “polyreactivity (PSR sort gate)” value was “high polyreactivity”. For “QVQLVESGGGLVQAGGSLRLSCAASGFTFYTFAMGLYRQAPGKERELVASITNGGGTYYADSVKGRFTNSRDNAKNTVYLQMNSLKPEDTAVFYCARRVYYWGRYKDEYNYWGQGTQVTVSS”, the “polyreactivity (PSR sort gate)” value was “high polyreactivity”. In the case of “QVQLVESGGGLVQAGGSLRLSCAASGSILARYAMGWYRQAPGKERELVAAISYNGGSTYYADSVKGRFTISRDNAKNTVYLQMNSRKPEDTAVYYCAKAYDTTLTYNYWGQGTQVTVSS”, the “polyreactivity (PSR sort gate)” value is reported as “low polyreactivity”. In the case of “QVQLVESGGGLVQAGGSLRLSCAASGYTFSDNAMGWYRQAPGKERELVAAITSGVSTYYADSVKGRFTISRDNAKNTVYLQMNSLKPEDTAVYYCAKDVAVYADLYQGAPYGYWGQGTQVTVSS”, the “polyreactivity (PSR sort gate)” value is reported as “low polyreactivity”. With “QVQLVETGGGLVQAGGSLRLSCAASGFTFTVYATGWYRQAPGKERELVAAIRWSGGSTSYADSVKRRFTISRDNAKNTVYLQMNSLKPEDTAVYYCNARISDAHYQSNYFLVLYDYWGQGTQVTVSS” the “polyreactivity (PSR sort gate)” value was “low polyreactivity”.
